PMC3099546

Columns and labels:
[1] = system: CCCCC/C=C\C\C=C/C=C/C=C/[C@@H](SC[C@H](NC(=O)CC[C@H](N)C(=O)O)C(=O)NCC(=O)O)[C@@H](O)CCCC(=O)O; assay: purified protein; details: substrate binding site
[2] = system: CSC[C@H](NC(=O)CC[C@H](N)C(=O)O)C(=O)NCC(=O)O; assay: glutamate release assay, Km of hydrolysis; type: biochemical, Homo sapiens
[3] = system: N[C@@H](CCC(=O)N[C@@H](CSCc1ccc([N+](=O)[O-])cc1)C(=O)NCC(=O)O)C(=O)O; assay: glutamate release assay, Km of hydrolysis; type: biochemical, Homo sapiens

“gamma-glutamyl transpeptidase (GGT1) (Homo sapiens)” gave a Km [1] of 10.8 ± 0.1 µM, a kcat [1] of 88.3 s⁻¹ and a kcat/Km [1] of 8.17e+06 M⁻¹ s⁻¹. It also gave a Km [2] of 9.90 ± 0.07 µM, a kcat [2] of 95 ± 3.33 s⁻¹ and a kcat/Km [2] of 9.5e+06 ± 333000 M⁻¹ s⁻¹. For the same substance, the Km [3] was 13.10 ± 0.05 µM, the kcat [3] was 103 ± 6.67 s⁻¹ and the kcat/Km [3] was 7.83e+06 ± 500000 M⁻¹ s⁻¹.
